Reference: paper doi:10.64898/2025.12.30.697104
Read-outs that look alike come from different tables or passages of the source.

What was measured:
[1] = target: Trichoplusia ni (Tni) beta-tubulin (Trichoplusia ni (endogenous in Tni cells)); assay: cryo-EM structure
[2] = target: Trichoplusia ni (Tni) beta-tubulin (Trichoplusia ni (endogenous in Tni cells)); assay: cryo-EM structure; remark: listed apart in the source

## Trichoplusia ni (Tni) beta-tubulin (natural protein)
[1]
  stoichiometry N: 2
[2]
  stoichiometry N: 2
